# Results: IntAct's records for PubMed 16339850
# B1: E3 ubiquitin-protein ligase COP1 (Arabidopsis thaliana (Mouse-ear cress)), P43254 (parent)
# chain: MEEISTDPVVPAVKPDPRTSSVGEGANRHENDDGGSGGSEIGAPDLDKDLLCPICMQIIKDAFLTACGHSFCYMCIITHLRNKSDCPCCSQHLTNNQLYPNFLLDKLLKKTSARHVSKTASPLDQFREALQRGCDVSIKEVDNLLTLLAERKRKMEQEEAERNMQILLDFLHCLRKQKVDELNEVQTDLQYIKEDINAVERHRIDLYRARDRYSVKLRMLGDDPSTRNAWPHEKNQIGFNSNSLSIRGGNFVGNYQNKKVEGKAQGSSHGLPKKDALSGSDSQSLNQSTVSMARKKRIHAQFNDLQECYLQKRRQLADQPNSKQENDKSVVRREGYSNGLADFQSVLTTFTRYSRLRVIAEIRHGDIFHSANIVSSIEFDRDDELFATAGVSRCIKVFDFSSVVNEPADMQCPIVEMSTRSKLSCLSWNKHEKNHIASSDYEGIVTVWDVTTRQSLMEYEEHEKRAWSVDFSRTEPSMLVSGSDDCKVKVWCTRQEASVINIDMKANICCVKYNPGSSNYIAVGSADHHIHYYDLRNISQPLHVFSGHKKAVSYVKFLSNNELASASTDSTLRLWDVKDNLPVRTFRGHTNEKNFVGLTVNSEYLACGSETNEVYVYHKEITRPVTSHRFGSPDMDDAEEEAGSYFISAVCWKSDSPTMLTANSQGTIKVLVLAA
# partner: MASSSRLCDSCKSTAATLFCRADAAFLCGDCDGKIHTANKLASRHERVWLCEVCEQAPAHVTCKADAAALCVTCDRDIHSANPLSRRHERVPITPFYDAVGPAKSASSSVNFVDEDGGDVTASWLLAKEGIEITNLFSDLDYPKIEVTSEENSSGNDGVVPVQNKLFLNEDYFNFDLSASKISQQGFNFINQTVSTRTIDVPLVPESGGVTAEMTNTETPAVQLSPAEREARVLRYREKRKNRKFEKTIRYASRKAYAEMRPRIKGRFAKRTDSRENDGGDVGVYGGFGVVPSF
# B2: Zinc finger protein CONSTANS-LIKE 3 (Arabidopsis thaliana (Mouse-ear cress)), Q9SK53 (parent)
# chain: B1 partner
# partner: B1 chain
# Variants of: B1
# Settings: with col3_arath COL3, Q9SK53
row,Variant,effect of a mutation on the interaction
1,G524E,disrupting interaction strength

# Variants of: B2
# Settings: with cop1_arath COP1, P43254
row,Variant,effect of a mutation on the interaction
1,V291A;P292A,disrupting interaction
